Results from patent US20240043537A1 (MacroGenics, published 2024).
Substitutions are numbered along the chain they refer to.

T1: soluble human CD123, His-tagged (human, UniProt P26951 19-305)
T1 construct: Captured on an anti-PentaHis surface; also called soluble CD123; not shown: His tag
T1 sequence (looked up): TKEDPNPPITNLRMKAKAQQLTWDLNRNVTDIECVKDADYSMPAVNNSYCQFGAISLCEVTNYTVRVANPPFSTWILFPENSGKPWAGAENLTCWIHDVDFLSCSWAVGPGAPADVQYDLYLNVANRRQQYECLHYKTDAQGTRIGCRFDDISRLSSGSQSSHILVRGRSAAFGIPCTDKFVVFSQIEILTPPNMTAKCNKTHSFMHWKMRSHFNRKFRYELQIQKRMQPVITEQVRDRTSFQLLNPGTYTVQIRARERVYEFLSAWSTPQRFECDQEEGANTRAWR

T2: 5T4 on A498 cells (UniProt Q13641 32-420, limits assumed)
T2 construct: whole, on cells; also called 5T4-expressing A498 cells; A-498 kidney carcinoma (5T4)
T2 sequence (looked up): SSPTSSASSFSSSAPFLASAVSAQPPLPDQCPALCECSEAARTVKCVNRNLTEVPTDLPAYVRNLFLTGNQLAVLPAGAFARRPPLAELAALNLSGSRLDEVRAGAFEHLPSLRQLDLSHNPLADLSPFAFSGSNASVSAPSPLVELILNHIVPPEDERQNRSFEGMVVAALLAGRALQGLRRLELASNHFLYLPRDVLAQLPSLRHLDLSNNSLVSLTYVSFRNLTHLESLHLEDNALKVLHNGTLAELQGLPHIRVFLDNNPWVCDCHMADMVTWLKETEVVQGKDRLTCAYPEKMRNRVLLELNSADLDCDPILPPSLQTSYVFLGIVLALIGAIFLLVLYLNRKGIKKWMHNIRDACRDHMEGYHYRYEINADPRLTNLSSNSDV

B1: 5T4-WT (bispecific antibody)
chain 1: DIQMTQSPSSLSASVGDRVTITCRASQGISNYLAWFQQKPGKAPKSLIYRANRLQSGVPSRFSGSGSGTDFTLTISSLQPEDVATYYCLQYDDFPWTFGQGTKLEIKGGGSGGGGEVQLVESGGGLVQPGGSLRLSCAASGFTFSTYAMNWVRQAPGKGLEWVGRIRSKYNNYATYYADSVKGRFTISRDDSKNSLYLQMNSLKTEDTAVYYCVRHGNFGNSYVSWFAYWGQGTLVTVSSGGCGGGEVAALEKEVAALEKEVAALEKEVAALEKGGGDKTHTCPPCPAPEAAGGPSVFLFPPKPKDTLMISRTPEVTCVVVDVSHEDPEVKFNWYVDGVEVHNAKTKPREEQYNSTYRVVSVLTVLHQDWLNGKEYKCKVSNKALPAPIEKTISKAKGQPREPQVYTLPPSREEMTKNQVSLWCLVKGFYPSDIAVEWESNGQPENNYKTTPPVLDSDGSFFLYSKLTVDKSRWQQGNVFSCSVMHEALHNHYTQKSLSLSPGK
chain 2: QAVVTQEPSLTVSPGGTVTLTCRSSTGAVTTSNYANWVQQKPGQAPRGLIGGTNKRAPWTPARFSGSLLGGKAALTITGAQAEDEADYYCALWYSNLWVFGGGTKLTVLGGGGSGGGGQVQLVQSGAEVKKPGASVKVSCKASGYTFTSFWMHWVRQAPGQGLEWMGRIDPNRGGTEYNEKAKSRVTMTADKSTSTAYMELSSLRSEDTAVYYCAGGNPYYPMDYWGQGTTVTVSSGGCGGGKVAALKEKVAALKEKVAALKEKVAALKE
chain 3: not shown
notes: Three-chain diabody with Fc; Kabat position 65 of the CD3 VH is G in this construct; also called 5T4 x CD3 mAb 1 DART-B-type diabody
B2: 5T4-M2 (bispecific antibody)
chain 1: B1 chain 1 with G183D, G217K, S225T
chain 2: B1 chain 2
chain 3: not shown
notes: Three-chain diabody with Fc; also called 5T4 x CD3 mAb 1 M2 DART-B-type diabody
B3: 5T4-M1 (bispecific antibody)
chain 1: B1 chain 1 with G183D, S225T
chain 2: B1 chain 2
chain 3: not shown
notes: Three-chain diabody with Fc; also called 5T4 x CD3 mAb 1 M1 DART-B-type diabody
B4: 5T4-M18 (bispecific antibody)
chain 1: B1 chain 1 with A148G, G183D
chain 2: B1 chain 2
chain 3: not shown
notes: Three-chain diabody with Fc; also called 5T4 x CD3 mAb 1 M18 DART-B-type diabody
B5: CD123-WT (bispecific antibody)
chain 1: DFVMTQSPDSLAVSLGERVTMSCKSSQSLLNSGNQKNYLTWYQQKPGQPPKLLIYWASTRESGVPDRFSGSGSGTDFTLTISSLQAEDVAVYYCQNDYSYPYTFGQGTKLEIKGGGSGGGGEVQLVESGGGLVQPGGSLRLSCAASGFTFSTYAMNWVRQAPGKGLEWVGRIRSKYNNYATYYADSVKDRFTISRDDSKNSLYLQMNSLKTEDTAVYYCVRHGNFGNSYVSWFAYWGQGTLVTVSSGGCGGGEVAALEKEVAALEKEVAALEKEVAALEKGGGDKTHTCPPCPAPEAAGGPSVFLFPPKPKDTLMISRTPEVTCVVVDVSHEDPEVKFNWYVDGVEVHNAKTKPREEQYNSTYRVVSVLTVLHQDWLNGKEYKCKVSNKALPAPIEKTISKAKGQPREPQVYTLPPSREEMTKNQVSLWCLVKGFYPSDIAVEWESNGQPENNYKTTPPVLDSDGSFFLYSKLTVDKSRWQQGNVFSCSVMHEALHNHYTQKSLSLSPGK
chain 2: QAVVTQEPSLTVSPGGTVTLTCRSSTGAVTTSNYANWVQQKPGQAPRGLIGGTNKRAPWTPARFSGSLLGGKAALTITGAQAEDEADYYCALWYSNLWVFGGGTKLTVLGGGGSGGGGEVQLVQSGAELKKPGASVKVSCKASGYTFTDYYMKWVRQAPGQGLEWIGDIIPSNGATFYNQKFKGRVTITVDKSTSTAYMELSSLRSEDTAVYYCARSHLLRASWFAYWGQGTLVTVSSGGCGGGKVAALKEKVAALKEKVAALKEKVAALKE
chain 3: not shown
notes: Three-chain diabody with Fc; also called CD123 x CD3 mAb 1 DART-B-type diabody
B6: CD123-M18 (bispecific antibody)
chain 1: B5 chain 1 with A154G
chain 2: B5 chain 2
chain 3: not shown
notes: Three-chain diabody with Fc; also called CD123 x CD3 mAb 1 M18 DART-B-type diabody
B7: CD123-M2 (bispecific antibody)
chain 1: B5 chain 1 with G223K, S231T
chain 2: B5 chain 2
chain 3: not shown
notes: Three-chain diabody with Fc; also called CD123 x CD3 mAb 1 M2 DART-B-type diabody
B8: CD123-M1 (bispecific antibody)
chain 1: B5 chain 1 with S231T
chain 2: B5 chain 2
chain 3: not shown
notes: Three-chain diabody with Fc; also called CD123 x CD3 mAb 1 M1 DART-B-type diabody
B9: CD123-M19 (bispecific antibody)
chain 1: B5 chain 1 with G223K, F225I
chain 2: B5 chain 2
chain 3: not shown
notes: Three-chain diabody with Fc; also called CD123 x CD3 mAb 1 M19 DART-B-type diabody
B10: CD123-M13 (bispecific antibody)
chain 1: B5 chain 1 with Y235E
chain 2: B5 chain 2
chain 3: not shown
notes: Three-chain diabody with Fc; also called CD123 x CD3 mAb 1 M13 DART-B-type diabody
B11: CD123-M17 (bispecific antibody)
chain 1: B5 chain 1 with Y153T
chain 2: B5 chain 2
chain 3: not shown
notes: Three-chain diabody with Fc; also called CD123 x CD3 mAb 1 M17 DART-B-type diabody
B12: T-CD123-WT (other)
chain 1: B5 chain 1
chain 2: B5 chain 2
heavy: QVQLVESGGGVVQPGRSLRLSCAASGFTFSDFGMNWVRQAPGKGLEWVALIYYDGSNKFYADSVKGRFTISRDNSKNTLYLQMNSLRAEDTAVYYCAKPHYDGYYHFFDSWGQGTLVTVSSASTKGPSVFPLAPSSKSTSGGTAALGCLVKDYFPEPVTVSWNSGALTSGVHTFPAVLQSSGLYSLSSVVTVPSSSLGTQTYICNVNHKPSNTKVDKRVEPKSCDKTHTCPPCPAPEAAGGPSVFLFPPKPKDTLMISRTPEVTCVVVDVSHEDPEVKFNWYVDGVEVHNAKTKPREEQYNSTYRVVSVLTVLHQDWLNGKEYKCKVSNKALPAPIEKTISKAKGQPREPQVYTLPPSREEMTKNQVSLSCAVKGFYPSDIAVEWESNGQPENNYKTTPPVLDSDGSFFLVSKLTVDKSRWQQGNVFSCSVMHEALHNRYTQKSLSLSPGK
light: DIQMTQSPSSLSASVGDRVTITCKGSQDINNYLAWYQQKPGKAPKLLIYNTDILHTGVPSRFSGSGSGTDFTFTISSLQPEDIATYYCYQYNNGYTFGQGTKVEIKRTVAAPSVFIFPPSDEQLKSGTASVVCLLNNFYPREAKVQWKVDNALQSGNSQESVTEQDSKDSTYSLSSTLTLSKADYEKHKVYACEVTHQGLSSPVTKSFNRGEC
notes: Four-chain trivalent CD123 x CD3 x CD8 molecule with Fc; also called CD123 mAb 1 x CD3 mAb 1 x TRX2 TRIVALENT-type molecule
B13: T-CD123-M1 (other)
chain 1: B5 chain 1 with S231T
chain 2: B5 chain 2
heavy: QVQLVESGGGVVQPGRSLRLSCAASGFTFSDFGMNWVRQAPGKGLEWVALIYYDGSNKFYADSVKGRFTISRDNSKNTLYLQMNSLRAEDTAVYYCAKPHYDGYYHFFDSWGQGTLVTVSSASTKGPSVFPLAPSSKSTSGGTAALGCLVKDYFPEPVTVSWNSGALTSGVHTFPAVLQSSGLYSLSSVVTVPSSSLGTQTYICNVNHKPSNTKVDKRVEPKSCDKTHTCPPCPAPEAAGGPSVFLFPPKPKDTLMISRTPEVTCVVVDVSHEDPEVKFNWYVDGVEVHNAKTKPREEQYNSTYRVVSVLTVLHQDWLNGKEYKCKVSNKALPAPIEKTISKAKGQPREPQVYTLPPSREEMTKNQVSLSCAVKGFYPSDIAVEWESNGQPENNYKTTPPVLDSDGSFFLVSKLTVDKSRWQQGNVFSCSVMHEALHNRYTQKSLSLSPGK
light: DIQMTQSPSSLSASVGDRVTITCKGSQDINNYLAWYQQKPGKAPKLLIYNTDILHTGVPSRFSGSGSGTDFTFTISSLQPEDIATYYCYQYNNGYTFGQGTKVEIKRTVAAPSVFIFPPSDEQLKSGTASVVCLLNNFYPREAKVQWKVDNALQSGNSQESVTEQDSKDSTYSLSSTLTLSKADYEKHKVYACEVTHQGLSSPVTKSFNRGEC
notes: Four-chain trivalent CD123 x CD3 x CD8 molecule with Fc; also called CD123 mAb 1 x CD3 mAb 1 M1 x TRX2 TRIVALENT-type molecule
B14: T-CD123-M18 (other)
chain 1: B5 chain 1 with A154G
chain 2: B5 chain 2
heavy: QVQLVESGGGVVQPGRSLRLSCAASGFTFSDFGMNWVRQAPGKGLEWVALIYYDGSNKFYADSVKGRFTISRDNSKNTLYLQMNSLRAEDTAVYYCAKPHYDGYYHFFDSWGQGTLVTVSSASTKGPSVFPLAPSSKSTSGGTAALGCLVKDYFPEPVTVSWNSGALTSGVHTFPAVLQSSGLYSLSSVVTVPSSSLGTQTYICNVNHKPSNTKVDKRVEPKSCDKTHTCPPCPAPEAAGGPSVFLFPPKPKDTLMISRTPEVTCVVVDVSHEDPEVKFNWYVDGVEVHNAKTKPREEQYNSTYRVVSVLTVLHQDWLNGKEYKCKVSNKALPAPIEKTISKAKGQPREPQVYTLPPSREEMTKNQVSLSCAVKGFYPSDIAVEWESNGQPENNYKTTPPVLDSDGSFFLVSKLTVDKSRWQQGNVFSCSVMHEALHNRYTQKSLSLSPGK
light: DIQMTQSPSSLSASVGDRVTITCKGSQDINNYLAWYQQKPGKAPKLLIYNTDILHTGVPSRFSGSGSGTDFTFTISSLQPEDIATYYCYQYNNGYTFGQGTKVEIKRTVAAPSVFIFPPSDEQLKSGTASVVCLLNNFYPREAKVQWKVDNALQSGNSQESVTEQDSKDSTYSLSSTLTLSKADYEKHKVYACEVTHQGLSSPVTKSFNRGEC
notes: Four-chain trivalent CD123 x CD3 x CD8 molecule with Fc; also called CD123 mAb 1 x CD3 mAb 1 M18 x TRX2 TRIVALENT-type molecule
B15: T-CD123-M2 (other)
chain 1: B5 chain 1 with G223K, S231T
chain 2: B5 chain 2
heavy: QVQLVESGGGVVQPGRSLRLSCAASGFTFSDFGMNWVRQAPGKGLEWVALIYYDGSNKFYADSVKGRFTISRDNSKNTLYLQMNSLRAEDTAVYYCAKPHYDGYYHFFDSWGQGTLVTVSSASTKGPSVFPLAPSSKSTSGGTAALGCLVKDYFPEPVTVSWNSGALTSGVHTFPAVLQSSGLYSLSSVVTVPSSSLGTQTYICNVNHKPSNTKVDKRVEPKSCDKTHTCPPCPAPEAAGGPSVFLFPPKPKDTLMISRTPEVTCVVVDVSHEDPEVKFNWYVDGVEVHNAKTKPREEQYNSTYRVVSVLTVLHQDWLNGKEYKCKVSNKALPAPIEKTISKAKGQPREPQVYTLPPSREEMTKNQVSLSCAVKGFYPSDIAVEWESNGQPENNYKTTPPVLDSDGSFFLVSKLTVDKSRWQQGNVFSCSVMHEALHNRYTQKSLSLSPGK
light: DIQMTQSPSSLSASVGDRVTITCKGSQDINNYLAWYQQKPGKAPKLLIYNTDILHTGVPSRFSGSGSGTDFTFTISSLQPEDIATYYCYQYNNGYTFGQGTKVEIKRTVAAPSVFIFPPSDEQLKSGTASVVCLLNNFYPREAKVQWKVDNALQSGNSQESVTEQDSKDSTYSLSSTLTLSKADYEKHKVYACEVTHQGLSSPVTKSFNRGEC
notes: Four-chain trivalent CD123 x CD3 x CD8 molecule with Fc; also called CD123 mAb 1 x CD3 mAb 1 M2 x TRX2 TRIVALENT-type molecule

These binders were tested against T3, soluble human CD3 (human, UniProt P07766 23-126) (assay: SPR (BIAcore), diabody over immobilized human CD3).
Method: (§1) The ability of the CD123-binding diabodies: CD123-WT, CD123-M1, CD123-M2 and CD123-M18 to bind to human CD3 and CD123 was also evaluated using BIAcore®. […] Table 14 presents the calculated kₐ, kd and KD from these studies.
The ability of the 5T4-binding diabodies: 5T4-WT, 5T4-M1, 5T4-M2 and 5T4-M18 to bind to CD3 was also evaluated using BIAcore®, as described above. Table 15A presents the calculated kₐ, kd and KD.

T3 sequence (P07766 23-126): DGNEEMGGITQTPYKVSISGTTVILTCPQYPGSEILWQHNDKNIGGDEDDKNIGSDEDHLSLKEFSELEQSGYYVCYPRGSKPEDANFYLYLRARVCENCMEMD

| Binder | Kd [nM] | koff [s⁻¹] | kon [M⁻¹ s⁻¹] |
| --- | --- | --- | --- |
| B1 | 36 | 0.0054 | 150000 |
| B2 | 118 | 0.041 | 350000 |
| B3 | 326 | 0.031 | 95000 |
| B4 | 453 | 0.034 | 75000 |

What follows are binders tested against T3, soluble human CD3 (assay: SPR (BIAcore), diabody over immobilized soluble human CD3, 1:1 fit).
Method: as §1

| Binder | Kd [nM] |
| --- | --- |
| B5 | 67 |
| B6 | 593 |
| B7 | 108 |
| B8 | 842 |

The binders below were run against cyno CD3 (cynomolgus, UniProt Q95LI5 22-117) (assay: SPR (BIAcore), diabody 6.25-400 nM over immobilized cyno CD3, 1:1 Langmuir fit).
Method: (§2) In additional studies the ability of CD123-binding diabodies: CD123-WT, CD123-M13, CD123-M17 and CD123-M19 to bind to human CD3 and cynomolgus CD3 was also evaluated using BIAcore®. […] Table 15B presents the calculated kₐ, kd and KD.

Chain of cyno CD3 (Q95LI5 22-117): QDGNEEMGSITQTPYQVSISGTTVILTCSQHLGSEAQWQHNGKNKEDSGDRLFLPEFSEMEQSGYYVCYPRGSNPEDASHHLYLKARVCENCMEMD

| Binder | Kd [nM] |
| --- | --- |
| B5 | 39 |
| B9 | 227 |
| B10 | 580 |
| B11 | 329 |

Each binder was assayed against T1, soluble human CD123, His-tagged (assay: SPR (BIAcore), diabody over His-tagged CD123 captured on anti-PentaHis, 1:1 fit).
Method: as §1

| Binder | Kd [nM] |
| --- | --- |
| B5 | 2 |
| B6 | 2.3 |
| B7 | 1.1 |
| B8 | 1.2 |

Each binder was assayed against T3, soluble human CD3 (assay: SPR (BIAcore), diabody 6.25-400 nM over immobilized human CD3, 1:1 Langmuir fit).
Method: as §2

| Binder | Kd [nM] |
| --- | --- |
| B5 | 52 |
| B9 | 218 |
| B10 | 458 |
| B11 | 290 |

The binders below were run against T4, CD123 on MOLM-13 cells (UniProt P26951 19-378, limits assumed) (assay: flow cytometry on CD123-expressing MOLM-13 cells, MFI (geo mean) against concentration (nM)).
T4 construct: whole, on cells; also called CD123-expressing MOLM-13 cells
Target sequence in this assay (P26951 19-378 limits assumed): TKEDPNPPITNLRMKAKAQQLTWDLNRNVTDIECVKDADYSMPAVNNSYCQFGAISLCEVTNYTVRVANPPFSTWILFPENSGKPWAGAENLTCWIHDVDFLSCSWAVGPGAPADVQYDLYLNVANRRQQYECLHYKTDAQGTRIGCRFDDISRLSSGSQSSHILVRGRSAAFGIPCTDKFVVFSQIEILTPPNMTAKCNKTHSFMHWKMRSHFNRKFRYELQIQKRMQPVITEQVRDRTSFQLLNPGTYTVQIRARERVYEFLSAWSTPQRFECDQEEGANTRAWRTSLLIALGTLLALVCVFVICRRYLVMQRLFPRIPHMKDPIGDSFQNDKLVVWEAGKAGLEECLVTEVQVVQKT

| Binder | binding result |
| --- | --- |
| B12 | binds |
| B13 | binds |
| B14 | binds |
| B15 | binds |

Each binder was assayed against T2, 5T4 on A498 cells (assay: Flow cytometry on A498 cells; detection with biotinylated anti-E/K-coil antibody and streptavidin-PE).
Method: (§3) FIG. 9A-9B show the ability of DART-B-type diabodies to bind to Disease Antigens. […] Binding was detected using biotinylated antibody specific for the diabodies' E/K coils and streptavidin-phycoerythrin (PE).
(§4) The ability of such diabodies to bind to their respective Disease Antigen (i.e., CD123 or 5T4) on the surface of MOLM-13 leukemia (CD123) or A-498 kidney carcinoma (5T4) target cancer cells was assessed using FACS. Briefly, cells were incubated with the diabody molecules (in FACS buffer containing 10% human AB serum) in microtiter plates. The cells were washed and incubated with biotin-conjugated mouse anti-EK-coil antibody that recognizes the E-coil/K-coil (EK) Heterodimer-Promoting Domain of the diabodies mixed with streptavidin-phycoerythrin.

| Binder | EC50 (read off the curve) [nM] |
| --- | --- |
| B1 | ~1 |
| B2 | ~1 |
| B3 | ~1 |
| B4 | ~1 |

These binders were tested against T4, CD123 on MOLM-13 cells (assay: Flow cytometry on MOLM-13 cells; detection with biotinylated anti-E/K-coil antibody and streptavidin-PE).
Method: as §3, §4

| Binder | EC50 (read off the curve) [nM] |
| --- | --- |
| B8 | ~2 |

What follows are binders tested against T5, CD8 on CD8+ T-cells (UniProt P01732 22-235; P10966 22-210) (assay: flow cytometry on CD8+ T-cells, MFI (geo mean) against concentration (nM); CD123-WT is the diabody comparator without a CD8-Binding Domain).
T5 construct: whole, on cells; also called CD8 expressing CD8+ T-cells
T5 sequence (P01732 22-235, chain 1 of 2): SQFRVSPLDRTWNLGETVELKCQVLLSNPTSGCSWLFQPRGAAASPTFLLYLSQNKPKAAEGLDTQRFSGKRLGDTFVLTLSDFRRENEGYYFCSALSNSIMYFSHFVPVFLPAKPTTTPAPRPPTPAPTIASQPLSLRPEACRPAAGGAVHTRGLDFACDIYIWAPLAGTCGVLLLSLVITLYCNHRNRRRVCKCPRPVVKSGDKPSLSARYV
T5 sequence (P10966 22-210, chain 2 of 2): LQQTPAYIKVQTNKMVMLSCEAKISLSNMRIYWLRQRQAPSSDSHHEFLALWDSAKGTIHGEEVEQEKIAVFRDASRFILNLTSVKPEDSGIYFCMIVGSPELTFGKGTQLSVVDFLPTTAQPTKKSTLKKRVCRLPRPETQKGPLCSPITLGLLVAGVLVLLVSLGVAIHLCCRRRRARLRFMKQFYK

| Binder | binding result |
| --- | --- |
| B5 | no binding (tested: 100 nM) |
